Experimental data published in IntAct's records for PubMed 20622900.

Target: mk03_human MAPK3 (UniProt P27361)
Sequence (P27361 whole entry): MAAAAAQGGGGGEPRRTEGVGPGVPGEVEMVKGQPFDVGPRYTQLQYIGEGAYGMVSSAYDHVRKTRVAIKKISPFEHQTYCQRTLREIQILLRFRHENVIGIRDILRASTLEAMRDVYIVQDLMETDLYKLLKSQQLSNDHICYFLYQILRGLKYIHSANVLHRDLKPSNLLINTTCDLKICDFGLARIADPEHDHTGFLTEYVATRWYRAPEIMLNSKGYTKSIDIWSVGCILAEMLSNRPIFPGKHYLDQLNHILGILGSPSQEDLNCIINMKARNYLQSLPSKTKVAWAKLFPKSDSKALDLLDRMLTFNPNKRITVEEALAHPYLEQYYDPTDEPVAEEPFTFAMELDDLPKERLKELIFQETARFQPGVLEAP

Substance	effect of a mutation on the interaction
Protein scribble homolog (Homo sapiens), Q14160 K1399A;R1400A	disrupting interaction
Protein scribble homolog (Homo sapiens), Q14160 R839A;R840A	decreasing interaction
